Results as given in article PMC11359615, “Evaluation of ABD-Linked RM26 Conjugates for GRPR-Targeted Drug Delivery” (ACS Omega, 2024).
Non-standard residues stand in square brackets, D forms with d. maleimide‑DOTA = DOTA attached via maleimide to the Cys thiol; Sta = CC(C)C[C@H](N)[C@@H](O)CC(=O)O; PEG4 = NCCOCCOCCOCCOCCC(=O)O

Experiments:
human serum albumin [1] = molecular target: T1, human serum albumin (human, UniProt P02768 25-609); assay: SPR; Biacore 8K; HSA immobilised on a CM5 chip by amine coupling (1250 RU); constructs at 50, 25, 12.5, 6.25 and 3.125 nM flowed at 30 uL/min in PBS-T (PBS + 0.05% Tween-20, pH 7.4); 150 s association, 3000 s dissociation; 1:1 Langmuir fit; details: both partners purified
T1 construct: human serum albumin (HSA), immobilised by amine coupling; also called HSA

human serum albumin [2] = molecular target: T2, human serum albumin (human, UniProt P02768 25-609); assay: SPR; Biacore 8K; HSA amine-coupled on CM5 chip (1250 RU); constructs at 50, 25, 12.5, 6.25 and 3.125 nM flowed over at 30 uL/min in PBS-T pH 7.4; 150 s association, 3000 s dissociation; 1:1 Langmuir fit; details: both partners purified
T2 construct: human serum albumin; also called HSA

[3] = molecular target: T3, gastrin-releasing peptide receptor (human (endogenous in PC-3), UniProt P30550 1-384); assay: radioligand binding; real-time binding kinetics of 111In-labelled conjugates on living GRPR-expressing PC-3 cells; conditions in the Supporting Information; details: one partner purified
T3 construct: gastrin-releasing peptide receptor on GRPR-expressing PC-3 cells; also called GRPR; source: endogenous, on living PC-3 cells
T3 sequence (P30550 whole entry): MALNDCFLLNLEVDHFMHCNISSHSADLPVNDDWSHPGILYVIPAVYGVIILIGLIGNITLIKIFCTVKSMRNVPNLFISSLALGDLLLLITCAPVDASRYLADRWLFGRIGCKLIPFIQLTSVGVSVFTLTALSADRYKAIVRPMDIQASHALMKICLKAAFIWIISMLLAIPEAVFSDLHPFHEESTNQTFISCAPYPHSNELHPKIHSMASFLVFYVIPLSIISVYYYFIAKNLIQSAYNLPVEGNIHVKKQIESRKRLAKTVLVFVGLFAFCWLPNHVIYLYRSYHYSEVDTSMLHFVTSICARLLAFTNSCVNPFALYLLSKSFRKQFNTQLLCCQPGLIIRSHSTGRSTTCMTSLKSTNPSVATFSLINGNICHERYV

B1: ABD-Cys14 control (recombinant ABD035 with N-terminal MEDANS, a Cys, a C-terminal Sortase A recognition sequence and a His-tag) (designed binder)
chain: MEDANSLAEAKVLANRELDKYGVSDFYCRLINKAKTVEGVEALKLHILAALPVDGSGSGSLPETGG
notes: also called ABD control; MEDANS-ABD; source: E. coli BL21 (DE3)*, purified (IMAC, HisPur Cobalt resin)
koff (human serum albumin [1]): 0.00024 s⁻¹
kon (human serum albumin [1]): 1.8e+07 M⁻¹ s⁻¹

B2: ABD (albumin-binding domain; recombinant ABD035 with N-terminal MEDANS, a Cys and a C-terminal Sortase A recognition sequence and His-tag) (designed binder)
chain: B1 chain
notes: also called ABD control; unconjugated ABD; source: E. coli BL21 (DE3)*, purified (IMAC, HisPur Cobalt resin); not shown: His6, C-terminal, kept
Kd (human serum albumin [2]): 0.013 nM

B3: ABD-RM26 Gen 2A conjugate (designed binder)
chain: MEDANSLAEAKVLANRELDKYGVSDFYC(maleimide‑DOTA)RLINKAKTVEGVEALKLHILAALPVDGSGSGSLPETGGG[PEG4][dF]QWAVGH[Sta]L-NH2
modifications: numbers in words are those of the source; also: DOTA loaded with 111In in cell assays
Kd [3]: 120 ± 140 nM
koff [3]: 0.013 s⁻¹
kon [3]: 670000 M⁻¹ s⁻¹
Kd (human serum albumin [2]): 0.048 nM
